Columns and labels:
[1] = target: pyruvate kinase M (PKM), P52480
[2] = target: T1, aconitase 2 (ACO2), Q99KI0
T1 chain: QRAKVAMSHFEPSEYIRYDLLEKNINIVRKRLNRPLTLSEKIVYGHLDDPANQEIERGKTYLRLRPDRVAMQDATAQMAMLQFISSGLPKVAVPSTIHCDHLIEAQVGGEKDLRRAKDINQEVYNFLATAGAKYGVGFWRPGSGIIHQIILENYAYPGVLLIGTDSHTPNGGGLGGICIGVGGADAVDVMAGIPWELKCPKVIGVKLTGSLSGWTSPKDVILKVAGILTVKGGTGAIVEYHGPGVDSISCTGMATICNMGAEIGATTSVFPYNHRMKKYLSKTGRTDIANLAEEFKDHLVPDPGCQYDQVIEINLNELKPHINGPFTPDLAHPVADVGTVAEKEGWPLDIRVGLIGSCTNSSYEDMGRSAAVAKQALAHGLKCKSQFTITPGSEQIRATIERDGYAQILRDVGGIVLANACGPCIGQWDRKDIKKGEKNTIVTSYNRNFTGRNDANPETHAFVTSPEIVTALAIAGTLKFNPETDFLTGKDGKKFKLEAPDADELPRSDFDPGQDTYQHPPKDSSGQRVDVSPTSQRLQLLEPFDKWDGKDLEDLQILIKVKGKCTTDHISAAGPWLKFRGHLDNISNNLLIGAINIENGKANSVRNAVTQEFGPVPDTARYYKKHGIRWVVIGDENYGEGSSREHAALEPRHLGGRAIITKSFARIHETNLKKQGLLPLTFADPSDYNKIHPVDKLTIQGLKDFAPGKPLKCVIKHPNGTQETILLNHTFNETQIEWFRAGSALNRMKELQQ

[3] = target: T2, glutaminase (GLS), D3Z7P3
T2 chain: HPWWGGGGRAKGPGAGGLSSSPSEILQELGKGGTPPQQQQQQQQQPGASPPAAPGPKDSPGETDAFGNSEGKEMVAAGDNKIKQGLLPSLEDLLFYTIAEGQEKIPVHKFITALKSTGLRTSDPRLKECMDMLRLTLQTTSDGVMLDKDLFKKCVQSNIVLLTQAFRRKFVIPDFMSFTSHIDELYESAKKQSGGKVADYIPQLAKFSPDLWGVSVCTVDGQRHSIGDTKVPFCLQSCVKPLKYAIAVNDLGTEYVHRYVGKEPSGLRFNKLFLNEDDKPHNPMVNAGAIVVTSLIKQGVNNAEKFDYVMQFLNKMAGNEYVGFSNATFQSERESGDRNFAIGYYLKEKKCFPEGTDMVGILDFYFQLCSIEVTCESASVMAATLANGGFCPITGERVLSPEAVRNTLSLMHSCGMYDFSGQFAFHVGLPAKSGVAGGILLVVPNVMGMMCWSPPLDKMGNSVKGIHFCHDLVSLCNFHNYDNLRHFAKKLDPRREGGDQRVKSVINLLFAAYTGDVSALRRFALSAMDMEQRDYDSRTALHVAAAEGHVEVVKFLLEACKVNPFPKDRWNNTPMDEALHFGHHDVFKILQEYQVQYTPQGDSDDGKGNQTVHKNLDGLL

[4] = target: T3, isocitrate dehydrogenase, P54071
T3 chain: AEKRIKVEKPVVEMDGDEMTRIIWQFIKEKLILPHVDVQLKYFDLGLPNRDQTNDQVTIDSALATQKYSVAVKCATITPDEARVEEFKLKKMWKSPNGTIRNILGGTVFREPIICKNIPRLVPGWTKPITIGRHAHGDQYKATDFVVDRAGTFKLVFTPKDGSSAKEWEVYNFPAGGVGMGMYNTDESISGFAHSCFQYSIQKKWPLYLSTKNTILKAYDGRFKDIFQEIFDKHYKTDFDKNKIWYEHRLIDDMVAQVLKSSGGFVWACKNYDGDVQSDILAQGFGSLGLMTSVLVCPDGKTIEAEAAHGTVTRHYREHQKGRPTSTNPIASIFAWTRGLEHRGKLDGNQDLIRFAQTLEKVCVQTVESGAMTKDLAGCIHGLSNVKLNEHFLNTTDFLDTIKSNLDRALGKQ

[5] = target: glutamate dehydrogenase (GDH), P26443
Chain of glutamate dehydrogenase (GDH), P26443 (P26443 54-558): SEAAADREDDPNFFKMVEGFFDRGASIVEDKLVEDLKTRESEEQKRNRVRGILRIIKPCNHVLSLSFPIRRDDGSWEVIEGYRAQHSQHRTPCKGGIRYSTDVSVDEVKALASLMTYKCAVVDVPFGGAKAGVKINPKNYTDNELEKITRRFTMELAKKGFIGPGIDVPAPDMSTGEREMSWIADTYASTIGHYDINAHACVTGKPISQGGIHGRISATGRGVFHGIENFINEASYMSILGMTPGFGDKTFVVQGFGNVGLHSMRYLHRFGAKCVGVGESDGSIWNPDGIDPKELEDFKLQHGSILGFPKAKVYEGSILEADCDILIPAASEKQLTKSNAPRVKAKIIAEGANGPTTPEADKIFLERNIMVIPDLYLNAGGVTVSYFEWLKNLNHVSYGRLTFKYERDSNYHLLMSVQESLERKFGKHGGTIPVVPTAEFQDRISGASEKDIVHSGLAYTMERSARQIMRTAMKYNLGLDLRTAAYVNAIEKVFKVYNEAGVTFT

enolase 1 (ENO1), P17182 = target: T4, enolase 1 (ENO1), P17182
T4 chain: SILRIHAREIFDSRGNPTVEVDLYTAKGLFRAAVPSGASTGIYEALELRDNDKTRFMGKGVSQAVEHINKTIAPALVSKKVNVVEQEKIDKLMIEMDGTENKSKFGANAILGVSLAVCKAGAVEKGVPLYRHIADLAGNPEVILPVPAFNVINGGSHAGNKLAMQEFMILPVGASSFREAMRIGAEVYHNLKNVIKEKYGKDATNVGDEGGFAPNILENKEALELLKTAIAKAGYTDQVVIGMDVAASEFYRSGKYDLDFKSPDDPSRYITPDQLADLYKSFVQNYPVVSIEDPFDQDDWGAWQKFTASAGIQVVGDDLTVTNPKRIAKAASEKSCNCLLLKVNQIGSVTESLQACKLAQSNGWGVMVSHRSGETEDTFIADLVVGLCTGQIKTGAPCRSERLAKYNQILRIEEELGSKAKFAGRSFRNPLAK

[6] = target: glyceraldehyde-3-phosphate dehydrogenase (GAPDH), P16858
Chain of glyceraldehyde-3-phosphate dehydrogenase (GAPDH), P16858 (P16858 whole entry): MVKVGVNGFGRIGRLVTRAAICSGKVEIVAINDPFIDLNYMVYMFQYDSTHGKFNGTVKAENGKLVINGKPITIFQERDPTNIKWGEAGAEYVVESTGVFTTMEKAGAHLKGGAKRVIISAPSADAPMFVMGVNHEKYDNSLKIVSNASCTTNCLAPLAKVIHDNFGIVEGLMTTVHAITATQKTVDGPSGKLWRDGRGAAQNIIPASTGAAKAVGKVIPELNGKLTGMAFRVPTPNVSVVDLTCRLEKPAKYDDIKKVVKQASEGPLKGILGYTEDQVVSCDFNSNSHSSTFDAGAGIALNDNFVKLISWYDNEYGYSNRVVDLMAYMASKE

[7] = target: T5, malate dehydrogenase, P08249
T5 chain: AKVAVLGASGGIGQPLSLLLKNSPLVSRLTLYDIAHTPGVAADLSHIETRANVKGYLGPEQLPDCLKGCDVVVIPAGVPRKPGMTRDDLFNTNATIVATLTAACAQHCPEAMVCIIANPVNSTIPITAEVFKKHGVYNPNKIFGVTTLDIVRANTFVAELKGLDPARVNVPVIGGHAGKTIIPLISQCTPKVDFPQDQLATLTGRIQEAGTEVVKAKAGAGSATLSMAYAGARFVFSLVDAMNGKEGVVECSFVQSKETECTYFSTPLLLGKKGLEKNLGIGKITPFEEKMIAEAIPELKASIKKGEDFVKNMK

[8] = target: succinate-CoA ligase alpha subunit (SUCLG1), Q9WUM5
Chain of succinate-CoA ligase alpha subunit (SUCLG1), Q9WUM5 (Q9WUM5 35-346): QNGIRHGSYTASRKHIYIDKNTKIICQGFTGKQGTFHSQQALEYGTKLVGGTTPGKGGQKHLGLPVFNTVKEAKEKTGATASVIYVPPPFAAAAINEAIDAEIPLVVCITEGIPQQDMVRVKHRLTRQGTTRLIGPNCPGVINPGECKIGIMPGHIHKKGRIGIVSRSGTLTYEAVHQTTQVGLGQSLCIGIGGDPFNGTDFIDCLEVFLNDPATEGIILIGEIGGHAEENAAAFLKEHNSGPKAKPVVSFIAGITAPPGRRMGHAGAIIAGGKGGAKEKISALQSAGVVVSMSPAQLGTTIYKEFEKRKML

[9] = target: lactate dehydrogenase (LDH), P06151
[10] = target: succinate dehydrogenase subunit alpha (SDHA), Q8K2B3
Chain of succinate dehydrogenase subunit alpha (SDHA), Q8K2B3 (Q8K2B3 43-664): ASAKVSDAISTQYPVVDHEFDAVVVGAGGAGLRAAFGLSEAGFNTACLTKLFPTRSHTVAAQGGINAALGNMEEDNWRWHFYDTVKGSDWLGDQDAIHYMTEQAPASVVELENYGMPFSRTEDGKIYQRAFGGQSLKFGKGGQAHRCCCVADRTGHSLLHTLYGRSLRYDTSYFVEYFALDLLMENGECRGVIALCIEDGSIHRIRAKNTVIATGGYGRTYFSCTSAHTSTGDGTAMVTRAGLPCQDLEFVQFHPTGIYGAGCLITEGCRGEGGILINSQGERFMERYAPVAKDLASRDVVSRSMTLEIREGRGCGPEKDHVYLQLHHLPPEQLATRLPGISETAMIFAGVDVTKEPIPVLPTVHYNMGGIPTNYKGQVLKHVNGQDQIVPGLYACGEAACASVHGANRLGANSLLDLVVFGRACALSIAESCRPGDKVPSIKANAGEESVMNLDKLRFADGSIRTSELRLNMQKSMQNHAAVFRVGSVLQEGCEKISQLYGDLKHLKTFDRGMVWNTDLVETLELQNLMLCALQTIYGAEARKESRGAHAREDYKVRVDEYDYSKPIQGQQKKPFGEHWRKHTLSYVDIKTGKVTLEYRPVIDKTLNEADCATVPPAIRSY

[11] = target: T6, Hydroxyacyl-CoA Dehydrogenase Trifunctional Multienzyme Complex Subunit Beta (HADHB), Q99JY0
T6 chain: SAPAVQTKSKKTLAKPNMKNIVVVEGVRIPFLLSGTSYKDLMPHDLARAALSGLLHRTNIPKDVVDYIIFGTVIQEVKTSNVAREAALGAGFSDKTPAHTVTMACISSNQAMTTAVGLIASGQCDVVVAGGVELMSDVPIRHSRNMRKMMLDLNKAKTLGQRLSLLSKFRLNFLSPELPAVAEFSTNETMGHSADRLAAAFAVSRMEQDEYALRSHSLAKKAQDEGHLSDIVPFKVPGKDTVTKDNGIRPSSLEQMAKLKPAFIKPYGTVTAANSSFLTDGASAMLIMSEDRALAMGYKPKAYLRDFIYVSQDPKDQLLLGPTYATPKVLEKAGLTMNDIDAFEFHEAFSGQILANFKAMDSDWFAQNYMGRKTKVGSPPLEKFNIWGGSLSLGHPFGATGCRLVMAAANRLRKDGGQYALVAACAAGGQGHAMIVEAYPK

[12] = target: T7, aldolase A (ALDOA), P05064
T7 chain: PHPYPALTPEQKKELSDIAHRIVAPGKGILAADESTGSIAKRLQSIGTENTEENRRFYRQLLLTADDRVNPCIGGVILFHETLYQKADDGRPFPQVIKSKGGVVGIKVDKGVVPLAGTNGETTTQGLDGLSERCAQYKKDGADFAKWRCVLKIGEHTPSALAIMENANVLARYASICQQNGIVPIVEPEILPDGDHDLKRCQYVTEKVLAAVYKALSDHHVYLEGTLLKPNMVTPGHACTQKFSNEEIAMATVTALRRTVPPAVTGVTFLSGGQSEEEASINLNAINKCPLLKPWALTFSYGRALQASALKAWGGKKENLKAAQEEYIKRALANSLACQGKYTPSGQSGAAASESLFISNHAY

[13] = target: T8, phosphoglycerate kinase 1 (PGK1), P09411
T8 chain: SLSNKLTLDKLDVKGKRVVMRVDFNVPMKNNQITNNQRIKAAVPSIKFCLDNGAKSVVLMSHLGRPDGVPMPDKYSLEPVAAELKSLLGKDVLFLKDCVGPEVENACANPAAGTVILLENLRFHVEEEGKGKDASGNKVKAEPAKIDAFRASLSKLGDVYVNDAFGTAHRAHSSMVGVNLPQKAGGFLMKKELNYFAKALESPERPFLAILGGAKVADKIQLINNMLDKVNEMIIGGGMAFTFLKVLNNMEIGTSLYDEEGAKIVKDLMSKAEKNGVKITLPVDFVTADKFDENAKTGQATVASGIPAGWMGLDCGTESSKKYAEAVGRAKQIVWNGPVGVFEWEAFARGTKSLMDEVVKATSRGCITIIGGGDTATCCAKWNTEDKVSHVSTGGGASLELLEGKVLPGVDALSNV

Chain of pyruvate kinase M (PKM), P52480 (P52480 whole entry): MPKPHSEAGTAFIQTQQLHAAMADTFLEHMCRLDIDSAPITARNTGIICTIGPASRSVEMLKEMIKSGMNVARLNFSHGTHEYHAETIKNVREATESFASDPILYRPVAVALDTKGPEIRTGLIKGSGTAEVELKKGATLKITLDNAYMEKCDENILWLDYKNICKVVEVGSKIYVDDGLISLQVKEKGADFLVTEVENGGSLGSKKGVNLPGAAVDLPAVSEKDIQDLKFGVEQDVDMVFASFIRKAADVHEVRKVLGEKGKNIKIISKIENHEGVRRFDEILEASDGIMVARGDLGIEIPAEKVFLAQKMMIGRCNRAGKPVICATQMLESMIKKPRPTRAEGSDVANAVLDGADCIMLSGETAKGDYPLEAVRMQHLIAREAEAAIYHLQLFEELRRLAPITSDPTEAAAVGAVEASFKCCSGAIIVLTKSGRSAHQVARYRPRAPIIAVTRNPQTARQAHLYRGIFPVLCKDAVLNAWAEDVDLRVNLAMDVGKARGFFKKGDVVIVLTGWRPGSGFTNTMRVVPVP

B1: Sirt2 (protein)
chain: AEPDPSDPLETQAGKVQEAQDSDSDTEGGATGGEAEMDFLRNLFTQTLGLGSQKERLLDELTLEGVTRYMQSERCRKVICLVGAGISTSAGIPDFRSPSTGLYANLEKYHLPYPEAIFEISYFKKHPEPFFALAKELYPGQFKPTICHYFIRLLKEKGLLLRCYTQNIDTLERVAGLEPQDLVEAHGTFYTSHCVNTSCRKEYTMGWMKEKIFSEATPRCEQCQSVVKPDIVFFGENLPSRFFSCMQSDFSKVDLLIIMGTSLQVQPFASLISKAPLATPRLLINKEKTGQTDPFLGMMMGLGGGMDFDSKKAYRDVAWLGDCDQGCLALADLLGWKKELEDLVRREHANIDAQSGSQAPNPSTTISPGKSPPPAKEAARTKEKEEQQ
acetylated peptide intensity (acetyl-lysine IP, LC-MS/MS, EIC) [1]: peptide CCSGAIIVLTKSGR (SEQ ID NO:6) from pyruvate kinase M ... acetylation site K433 ... increased acetylation intensity in Sirt2^-/- sample versus WT | acetylated peptide intensity (acetyl-lysine IP, LC-MS/MS, EIC) [2]: peptide NFTGRNDANPETHAFVTSPEIVTALAIAGTLKFNPETDFLTGKDGK (SEQ ID NO:7) from aconitase 2 ... acetylation site K506 ... increased acetylation intensity in Sirt2^-/- sample versus WT | acetylated peptide intensity (acetyl-lysine IP, LC-MS/MS, EIC) [3]: peptide FITALKSTG (SEQ ID NO:13) from GLS ... acetylation site K169 ... increased acetylation intensity in Sirt2^-/- sample versus WT | acetylated peptide intensity (acetyl-lysine IP, LC-MS/MS, EIC) [4]: peptide NILGGTVFREPIICKNIPR (SEQ ID NO:8) from isocitrate dehydrogenase ... acetylation site K155 ... increased acetylation intensity in Sirt2^-/- sample versus WT | acetylated peptide intensity (acetyl-lysine IP, LC-MS/MS, EIC) [5]: peptide LTFKYER (SEQ ID NO:14) from GDH ... acetylation site K457 ... increased acetylation intensity in Sirt2^-/- sample versus WT | acetylated peptide intensity (acetyl-lysine IP, LC-MS/MS, EIC) (enolase 1 (ENO1), P17182): peptide SCNCLLLKVNQIGSVTESLQACK (SEQ ID NO:2) from enolase 1 ... acetylation site K343 ... increased acetylation intensity in Sirt2^-/- sample versus WT | acetylated peptide intensity (acetyl-lysine IP, LC-MS/MS, EIC) [6]: peptide WGEAGAEYVVESTGVFTTMEKAGAHLK (SEQ ID NO:5) from glyceraldehyde-3-phosphate dehydrogenase ... acetylation site K105 ... increased acetylation intensity in Sirt2^-/- sample versus WT | acetylated peptide intensity (acetyl-lysine IP, LC-MS/MS, EIC) [7]: peptide ETECTYFSTPLLLGKK (SEQ ID NO:11) from malate dehydrogenase ... acetylation site K296 ... increased acetylation intensity in Sirt2^-/- sample versus WT | acetylated peptide intensity (acetyl-lysine IP, LC-MS/MS, EIC) [8]: peptide SSDEAYAIAKK (SEQ ID NO:9) from Succinyl-CoA Ligase ... acetylation site K125 ... increased acetylation intensity in Sirt2^-/- sample versus WT | acetylated peptide intensity (acetyl-lysine IP, LC-MS/MS, EIC) [9]: peptide FIIPNIVKYSPHCK (SEQ ID NO:3) from lactate dehydrogenase ... acetylation site K126 ... increased acetylation intensity in Sirt2^-/- sample versus WT | acetylated peptide intensity (acetyl-lysine IP, LC-MS/MS, EIC) [10]: peptide ISQLYGDLKHLK (SEQ ID NO:10) from Succinate Dehydrogenase Subunit Alpha ... acetylation site K544 ... increased acetylation intensity in Sirt2^-/- sample versus WT | acetylated peptide intensity (acetyl-lysine IP, LC-MS/MS, EIC) [11]: peptide GQQQVFKGLNDK (SEQ ID NO:12) from HADHB ... acetylation site K406 ... increased acetylation intensity in Sirt2^-/- sample versus WT | acetylated peptide intensity (acetyl-lysine IP, LC-MS/MS, EIC) [12]: peptide GILAADESTGSIAKR (SEQ ID NO:1) from aldolase A ... acetylation site K42 ... increased acetylation intensity in Sirt2^-/- sample versus WT | acetylated peptide intensity (acetyl-lysine IP, LC-MS/MS, EIC) [13]: peptide SVVLMSHLGRPDGVPMPDKYSLEPVAAELK (SEQ ID NO:4) from phosphoglycerate kinase 1 ... acetylation site K75 ... increased acetylation intensity in Sirt2^-/- sample versus WT

Reference: patent publication US20220017863
